Assay results taken from US9446124B2, “Targeting of bone marrow neovasculature” (Philogen S.P.A., priority 2009, dated 2016).
“Also recorded” adds a separate entry of the source.

B1: F8-SIP (V5L/K18R): human monoclonal mini-immunoglobulin specific to the alternatively spliced EDA domain of fibronectin; sequence SEQ ID NO:26 (protein)
chain: EVQLLESGGGLVQPGGSLRLSCAASGFTFSLFTMSWVRQAPGKGLEWVSAISGSGGSTYYADSVKGRFTISRDNSKNTLYLQMNSLRAEDTAVYYCAKSTHLYLFDYWGQGTLVTVSSGGGGSGGGSGGGGGEIVLTQSPGTLSLSPGERATLSCRASQSVSMPFLAWYQQKPGQAPRLLIYGASSRATGIPDRFSGSGSGTDFTLTISRLEPEDFAVYYCQQMRGRPPTFGQGTKVEIKSGGSGGPRAAPEVYAFATPEWPGSRDKRTLACLIQNFMPEDISVQWLHNEVQLPDARHSTTQPRKTKGSGFFVFSRLEVTRAEWEQKDEFICRAVHEAASPSQTVQRAVSVNPESSRRGGC
modifications: Synthetic sequence F8-SIP (V5L/K18R) amino acid sequence
B2: 4A1-F16-SIP: human monoclonal mini-immunoglobulin specific to the A1 domain of tenascin-C; sequence SEQ ID NO:25 (protein)
chain: EVQLLESGGGLVQPGGSLRLSCAASGFTFSRYGMSWVRQAPGKGLEWVSAISGSGGSTYYADSVKGRFTISRDNSKNTLYLQMNSLRAEDTAVYYCAKAHNAFDYWGQGTLVTVSRGGGSGGGSGGSSELTQDPAVSVALGQTVRITCQGDSLRSYYASWYQQKPGQAPVLVIYGKNNRPSGIPDRFSGSSSGNTASLTITGAQAEDEADYYCNSSVYTMPPVVFGGGTKLTVLSGGSGGPRAAPEVYAFATPEWPGSRDKRTLACLIQNFMPEDISVQWLHNEVQLPDARHSTTQPRKTKGSGFFVFSRLEVTRAEWEQKDEFICRAVHEAASPSQTVQRAVSVNPESSRRGGC
modifications: Synthetic sequence 4A1-F16-SIP amino acid sequence

Key:
[1] = tested on: target tumour cells and endothelial cells; conditions: acts on microtubuli; literature references; cited from earlier work
[2] = tested on: blood vessels in the bone marrow of AML patients; assay: Immunohistochemistry of bone marrow biopsies from AML patients; format: binding, human; conditions: biotinylated antibody in SIP format, 2 μg/ml, frozen 10 μm sections; FIG. 2
Description: (§1) Immunohistochemistry and immunofluorescence analysis were performed on freshly frozen bone marrow biopsies of patients with acute myeloid leukaemia.
(§2) For immunohistochemistry, biotinylated antibodies were used in small immunoprotein format (SIP) under identical conditions (2 μg/ml). Aliquots were prepared from a single batch of antibodies, frozen and used only once to ensure reproducibility of immunohistochemical stainings. Frozen tissue samples were stored at −80° C. Sections of 10 μm thickness were fixed in chilled acetone, rehydrated in TBS buffer (50 mM Tris, 100 mM NaCl, 0.001% Aprotinin, pH 7.4) and blocked with 20% fetal calf serum in TBS. The antibodies were added onto the sections in a final concentration of 2 μg/mL in 3% bovine serum albumin (BSA)/TBS solution and incubated for one hour. After washing in TBS, bound antibodies were detected with streptavidin-biotinylated alkaline phosphatase complex (Biospa, Milan, Italy) in TBS 3% BSA+2 mM MgCl2. The Fast Red substrate (Sigma) was used for detection of phosphatase activity. Sections were counterstained with Gill's hematoxylin No. 2 (Sigma) and mounted with Glycergel mounting medium (Dako, Glostrup, Denmark).

[3] = tested on: vessels of HL-60 tumour (granulocytic sarcoma) sections; assay: Immunohistochemistry of HL-60 tumours from human leukaemia mouse model; format: binding; conditions: biotinylated SIP, 2 μg/ml, HL-60 xenograft in nude mice, FIG. 4A
Description: as §2
(§3) The mouse model for human leukaemia used here was previously described in Potter et al. (1984). Specifically, nude mice were xenografted with cells from the HL-60 leukaemia cell line and, after development of HL-60 tumours (granulocytic sarcomas), samples were obtained both from said tumours and from the bone marrow of the mice.
Immunohistochemistry studies were then performed as described under “immunohistochemistry” above.

[4] = tested on: healthy bone marrow; assay: Immunohistochemistry of healthy bone marrow from HL-60 xenografted mice; format: binding, nude mice; conditions: biotinylated SIP, 2 μg/ml; bone marrow of the same HL-60 xenografted mice; FIG. 4B
Description: as §2
as §3, with “mice. […]” for “mice.”

[5] = tested on: blood vessels present in the bone marrow biopsies of patients with extramedullary AML; assay: Immunohistochemistry of bone marrow biopsies from patients with extramedullary AML; format: binding, human; conditions: biotinylated antibody in SIP format, 2 μg/ml; two patients; FIG. 3
Description: as §1, §2

[6] = tested on: areas of bone marrow from AML patients with high blast densities; assay: Multicolour immunofluorescence of AML bone marrow (co-localization with vWF); format: binding, human; conditions: biotinylated SIP, 2 μg/mL
Description: Biotinylated antibodies were used in small immunoprotein format (SIP) under identical conditions (2 μg/ml). Aliquots were prepared from a single batch of antibodies, frozen and used only once to ensure reproducibility of immunohistochemical stainings.
Sections of 10 μm thickness were fixed in chilled acetone and blocked with 20% fetal calf serum in PBS. Biotinylated F8-SIP (V5L/K18R) and 4A1-F16-SIP were added onto the sections in a final concentration of 2 μg/mL in 3% bovine serum albumin (BSA)/PBS solution and incubated for one hour. Mouse anti-human vWF (von Willebrandt factor) was used to outline endothelial cells. After washing in PBS, bound primary antibodies were detected with Streptavidin-Alexa Fluor 488 and anti-mouse IgG Alexa Fluor 594 (Invitrogen) were used as secondary antibodies. Nuclei were counterstained with DAPI and images were captured on an Axioskop 2 Mot plus microscope equipped with an AxioCam MRc camera (Zeiss). Human

Molecule | concentration range capable of killing target tumour cells and endothelial cells [1] | staining of blood vessels in bone marrow biopsies of AML patients [2] | staining of vessels in HL-60 tumour sections [3] | staining of healthy bone marrow sections [4] | staining of blood vessels in bone marrow biopsies of extramedullary AML patients [5] | co-localization with antibodies specific for von Willebrand Factor (vWF) [6] | staining of vessels in HL-60 tumour sections ([3]; listed as 4A1-F16 SIP)
CC[C@]1(O)C[C@H]2CN(CCc3c([nH]c4ccccc34)[C@@](C(=O)OC)(c3cc4c(cc3OC)N(C)[C@H]3[C@@](O)(C(=O)NN)[C@H](O)[C@]5(CC)C=CCN6CC[C@]43[C@@H]65)C2)C1 [4-desacetyl-3-vinblastine monohydrazide] | picomolar concentration range |  |  |  |  |  | 
cemadotin | picomolar concentration range |  |  |  |  |  | 
B1 |  | also visible, although the level of staining was weaker than that observed with 4A1-F16-SIP; also recorded: stained a large proportion of these blood vessels but fewer than observed with the 4A1-F16-SIP antibody | strongly stained the vessels of the HL-60 tumour sections; also recorded: strongly stained the vessels present in the HL-60 tumour (granulocytic sarcoma) sections | no staining was visible | also visible and was either similar or slightly weaker than the level of staining observed with 4A1-F16-SIP |  | 
B2 |  | strongly stained the blood vessels present in the bone marrow biopsy; also recorded: capable of staining the vast majority of blood vessels | strongly stained the vessels of the HL-60 tumour sections | no staining was visible | strongly stained the blood vessels present in the bone marrow biopsies in both cases | excellent co-localization | strongly stained the vessels present in the HL-60 tumour (granulocytic sarcoma) sections
